Here are results for one molecule from PMC3581573 (2013).

The assay concerns the target Recombinant Flag-tagged human PRMT5 (Homo sapiens (Human), UniProt O14744). Nature of the assay: anti-Flag pulldown with immunoblot. (In general: Immunoblotting shows a protein as a band on a membrane.)

Sequence of Recombinant Flag-tagged human PRMT5 (O14744 whole entry): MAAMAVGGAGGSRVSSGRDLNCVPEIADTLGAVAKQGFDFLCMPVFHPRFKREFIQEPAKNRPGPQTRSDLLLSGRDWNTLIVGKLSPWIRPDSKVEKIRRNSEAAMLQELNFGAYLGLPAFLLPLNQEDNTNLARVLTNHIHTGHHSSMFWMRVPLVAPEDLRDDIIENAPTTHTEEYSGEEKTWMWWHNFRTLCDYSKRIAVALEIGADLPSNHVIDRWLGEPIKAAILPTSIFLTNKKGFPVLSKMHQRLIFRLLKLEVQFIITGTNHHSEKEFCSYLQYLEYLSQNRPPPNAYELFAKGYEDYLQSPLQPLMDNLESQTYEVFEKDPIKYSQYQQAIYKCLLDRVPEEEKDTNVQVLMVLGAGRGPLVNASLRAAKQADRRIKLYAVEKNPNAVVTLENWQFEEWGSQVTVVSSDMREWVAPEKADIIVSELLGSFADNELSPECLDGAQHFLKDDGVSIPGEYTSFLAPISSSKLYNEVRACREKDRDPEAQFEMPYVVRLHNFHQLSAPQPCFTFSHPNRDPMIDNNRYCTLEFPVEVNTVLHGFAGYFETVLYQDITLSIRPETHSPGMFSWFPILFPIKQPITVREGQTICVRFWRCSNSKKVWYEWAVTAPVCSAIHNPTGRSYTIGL

B1: Recombinant Xenopus laevis MEP50 alone (protein)
chain: MSKGSAWGRPVTAPACMEVQIGAVRYRRDGALLLAASSLSSRTWGGSIWVFKDPEGAPNESLCTAGVQTEAGVTDVAWVSEKGILVASDSGAVELWEILEKESLLVNKFAKYEHDDIVKTLSVFSDGTQAVSGGKDFSVKVWDLSQKAVLKSYNAHSSEVNCVAACPGKDTIFLSCGEDGRILLWDTRKPKPATRIDFCASDTIPTSVTWHPEKDDTFACGDETGNVSLVNIKNPDSAQTSAVHSQNITGLAYSYHSSPFLASISEDCTVAVLDADFSEVFRDLSHRDFVTGVAWSPLDHSKFTTVGWDHKVLHHHLPSEGRTENLIATKAED
As to B1, the binding result is reported as “binds”.
